PMC8956953 (The Journal of Biological Chemistry, 2022)

B1: YES1, spotted on the ProtoArray (enzyme)
chain: not shown
notes: human YES1 kinase; not shown: GST, N-terminal, kept
B2: RPS6KA6, spotted on the ProtoArray (enzyme, human, UniProt Q9UK32 1-745, looked up)
chain: MLPFAPQDEPWDREMEVFSGGGASSGEVNGLKMVDEPMEEGEADSCHDEGVVKEIPITHHVKEGYEKADPAQFELLKVLGQGSFGKVFLVRKKTGPDAGQLYAMKVLKKASLKVRDRVRTKMERDILVEVNHPFIVKLHYAFQTEGKLYLILDFLRGGDVFTRLSKEVLFTEEDVKFYLAELALALDHLHQLGIVYRDLKPENILLDEIGHIKLTDFGLSKESVDQEKKAYSFCGTVEYMAPEVVNRRGHSQSADWWSYGVLMFEMLTGTLPFQGKDRNETMNMILKAKLGMPQFLSAEAQSLLRMLFKRNPANRLGSEGVEEIKRHLFFANIDWDKLYKREVQPPFKPASGKPDDTFCFDPEFTAKTPKDSPGLPASANAHQLFKGFSFVATSIAEEYKITPITSANVLPIVQINGNAAQFGEVYELKEDIGVGSYSVCKRCIHATTNMEFAVKIIDKSKRDPSEEIEILMRYGQHPNIITLKDVFDDGRYVYLVTDLMKGGELLDRILKQKCFSEREASDILYVISKTVDYLHCQGVVHRDLKPSNILYMDESASADSIRICDFGFAKQLRGENGLLLTPCYTANFVAPEVLMQQGYDAACDIWSLGVLFYTMLAGYTPFANGPNDTPEEILLRIGNGKFSLSGGNWDNISDGAKDLLSHMLHMDPHQRYTAEQILKHSWITHRDQLPNDQPKRNDVSHVVKGAMVATYSALTHKTFQPVLEPVAASSLAQRRSMKKRTSTGL
notes: human RPS6KA6 kinase; not shown: GST, N-terminal, kept
B3: S100 calcium-binding protein B, spotted on the ProtoArray (natural protein, human, UniProt P04271 1-92, looked up)
chain: MSELEKAMVALIDVFHQYSGREGDKHKLKKSELKELINNELSHFLEEIKEQEVVDKVMETLDNDGDGECDFQEFMAFVAMVTTACHEFFEHE
notes: also called S100β; not shown: GST, N-terminal, kept

biological target: T1, recombinant human full-length tau protein (htau40) (human, UniProt P10636-8 1-441); experiment: peptide or protein array; ProtoArray Human Protein Microarrays v5.1, ~9000 N-terminal GST-tagged human proteins spotted on nitrocellulose-coated slides; htau40 at 5 and 50 ng/μl in probe buffer (1x PBS, 0.1% Tween-20, 1x synthetic block), 90 min at 4 °C; detected with anti-tau K9JA and Alexa Fluor 647 secondary antibody; settings: both partners purified
T1 construct: human microtubule-associated protein tau, longest CNS splicing variant 2N4R (htau40); also called recombinant htau40; 2N4R; source: E. coli-derived recombinant protein

Binder	binding result
B1	binds
B2	binds
B3	binds
